Test results: patent US20130040894A1, “INHIBITION OR ACTIVATION OF SERINE/THREONINE ULK3 KINASE ACTIVITY” (TALLINN UNIVERSITY OF TECHNOLOGY, priority 2009, published 2013)

Test system: GLI-dependent firefly luciferase activity in Shh-LIGHT2 cells
Assay: GLI-dependent luciferase assay in Shh-L2 cells
Assay type: cell-based, mouse
Experimental: Cells were transfected by the expression constructs or respective empty vectors using Polyethylenimine transfection agent (PEI) (Inbio) and as described in [28]. We used 0.25 μg of cDNA per 1 cm^2 of plate surface area for transfections. After 3 h of transfection HEK293, NIH3T3 and Cos1 cells were propagated in the normal growth medium for 48 h. Prior the further analysis the cells were washed twice with PBS. Post-transfectional Shh-L2 cells were grown in the normal growth medium for 24 h and for additional 24 h in the Light medium containing 0.25% FBS, washed once with PBS, lysed in Passive Lysis Buffer (Promega, Madison Wis., USA) (70 ul per well of 24-well plate format) and subjected to luciferase assay.
Luciferase assay was performed as previously described. Briefly, firefly luciferase activity of 12 μl of the Shh-L2 cells lysate was measured using Luciferase Assay Kit (Promega) and galactosidase activity was quantified using Galacto-LightPlus kit (Tropix, Bedford Mass., USA) according to the manufacturer's instructions. Chemiluminicence was measured using Ascent FL Fluoroscan (Thermo Electron Corporation, Waltham Mass., USA) according to the manufacturer's instructions.
We cotransfected the constructs together with GLI-expressing plasmids (or respective empty vector) into Shh-L2 cells and assessed their effect on GLI-dependent firefly luciferase activity. The obtained data was normalized with β-galactosidase values. […] It was able to stimulate the luciferase activity 3.8 times and enhanced the transcriptional activity of over expressed GLI1 and GLI2 approximately 2 and 3.2 times, respectively. The potency of STK36 in the assay was much lower.
In order to examine if the kinase activity of ULK3 is required for the luciferase reporter activation we tested the supposed kinase-deficient variants of ULK3, ULK3(K44R) and ULK3(K139R) in the same assay. […] We also tested the effect of ULK3 and the mutants on the luciferase reporter when the SHH pathway was activated by cotransfection with pShhN (plasmid expressing biologically active part of SHH).

B1: STK36: human serine/threonine kinase STK36, mammalian orthologue of dFu, expressed from STK36pcDNA3.1 (protein, UniProt Q9NRP7 1-1315, looked up)
Serine/threonine-protein …: MEKYHVLEMIGEGSFGRVYKGRRKYSAQVVALKFIPKLGRSEKELRNLQREIEIMRGLRHPNIVHMLDSFETDKEVVVVTDYAEGELFQILEDDGKLPEDQVQAIAAQLVSALYYLHSHRILHRDMKPQNILLAKGGGIKLCDFGFARAMSTNTMVLTSIKGTPLYMSPELVEERPYDHTADLWSVGCILYELAVGTPPFYATSIFQLVSLILKDPVRWPSTISPCFKNFLQGLLTKDPRQRLSWPDLLYHPFIAGHVTIITEPAGPDLGTPFTSRLPPELQVLKDEQAHRLAPKGNQSRILTQAYKRMAEEAMQKKHQNTGPALEQEDKTSKVAPGTAPLPRLGATPQESSLLAGILASELKSSWAKSGTGEVPSAPRENRTTPDCERAFPEERPEVLGQRSTDVVDLENEEPDSDNEWQHLLETTEPVPIQLKAPLTLLCNPDFCQRIQSQLHEAGGQILKGILEGASHILPAFRVLSSLLSSCSDSVALYSFCREAGLPGLLLSLLRHSQESNSLQQQSWYGTFLQDLMAVIQAYFACTFNLERSQTSDSLQVFQEAANLFLDLLGKLLAQPDDSEQTLRRDSLMCFTVLCEAMDGNSRAISKAFYSSLLTTQQVVLDGLLHGLTVPQLPVHTPQGAPQVSQPLREQSEDIPGAISSALAAICTAPVGLPDCWDAKEQVCWHLANQLTEDSSQLRPSLISGLQHPILCLHLLKVLYSCCLVSEGLCRLLGQEPLALESLFMLIQGKVKVVDWEESTEVTLYFLSLLVFRLQNLPCGMEKLGSDVATLFTHSHVVSLVSAAACLLGQLGQQGVTFDLQPMEWMAAATHALSAPAEVRLTPPGSCGFYDGLLILLLQLLTEQGKASLIRDMSSSEMWTVLWHRFSMVLRLPEEASAQEGELSLSSPPSPEPDWTLISPQGMAALLSLAMATFTQEPQLCLSCLSQHGSILMSILKHLLCPSFLNQLRQAPHGSEFLPVVVLSVCQLLCFPFALDMDADLLIGVLADLRDSEVAAHLLQVCCYHLPLMQVELPISLLTRLALMDPTSLNQFVNTVSASPRTIVSFLSVALLSDQPLLTSDLLSLLAHTARVLSPSHLSFIQELLAGSDESYRPLRSLLGHPENSVRAHTYRLLGHLLQHSMALRGALQSQSGLLSLLLLGLGDKDPVVRCSASFAVGNAAYQAGPLGPALAAAVPSMTQLLGDPQAGIRRNVASALGNLGPEGLGEELLQCEVPQRLLEMACGDPQPNVKEAALIALRSLQQEPGIHQVLVSLGASEKLSLLSLGNQSLPHSSPRPASAKHCRKLIHLLRPAHSM
- enhancement of transcriptional activity of overexpressed GLI1 (cotransfected with GLI1, Shh-L2 cells): no effect
- enhancement of transcriptional activity of overexpressed GLI2 (cotransfected with GLI2, Shh-L2 cells): 1.6 times
- stimulation of GLI-dependent luciferase activity (kinase construct alone, Shh-L2 cells, normalized with β-galactosidase): failed to activate
